Experimental data taken from patent US20170334979A1 (published 2017).

B1: cynomolgus monkey serum albumin (other)
chain: DTHKSEVAHRFKDLGEEHFKGLVLVAFSQYLQQCPFEEHVKLVNEVTEFAKTCVADESAENCDKSLHTLFGDKLCTVATLRETYGEMADCCAKQEPERNECFLQHKDDNPNLPPLVRPEVDVMCTAFHDNEATFLKKYLYEVARRHPYFYAPELLFFAARYKAAFAECCQAADKAACLLPKLDELRDEGKASSAKQRLKCASLQKFGDRAFKAWAVARLSQKFPKAEFAEVSKLVTDLTKVHTECCHGDLLECADDRADLAKYMCENQDSISSKLKECCDKPLLEKSHCLAEVENDEMPADLPSLAADYVESKDVCKNYAEAKDVFLGMFLYEYARRHPDYSVMLLLRLAKAYEATLEKCCAAADPHECYAKVFDEFQPLVEEPQNLVKQNCELFEQLGEYKFQNALLVRYTKKVPQVSTPTLVEVSRNLGKVGAKCCKLPEAKRMPCAEDYLSVVLNRLCVLHEKTPVSEKVTKCCTESLVNRRPCFSALELDEAYVPKAFNAETFTFHADMCTLSEKEKQVKKQTALVELVKHKPKATKEQLKGVMDNFAAFVEKCCKADDKEACFAEEGPKFVAASQAALA

How the values were obtained:
Assay in all cases: purified sdAb binding
[1] = target: B1
[2] = target: human serum albumin (human, UniProt P02768 25-609)
[3] = target: mouse serum albumin (mouse, UniProt P07724 25-608)
mouse serum albumin, sequence (P07724 25-608): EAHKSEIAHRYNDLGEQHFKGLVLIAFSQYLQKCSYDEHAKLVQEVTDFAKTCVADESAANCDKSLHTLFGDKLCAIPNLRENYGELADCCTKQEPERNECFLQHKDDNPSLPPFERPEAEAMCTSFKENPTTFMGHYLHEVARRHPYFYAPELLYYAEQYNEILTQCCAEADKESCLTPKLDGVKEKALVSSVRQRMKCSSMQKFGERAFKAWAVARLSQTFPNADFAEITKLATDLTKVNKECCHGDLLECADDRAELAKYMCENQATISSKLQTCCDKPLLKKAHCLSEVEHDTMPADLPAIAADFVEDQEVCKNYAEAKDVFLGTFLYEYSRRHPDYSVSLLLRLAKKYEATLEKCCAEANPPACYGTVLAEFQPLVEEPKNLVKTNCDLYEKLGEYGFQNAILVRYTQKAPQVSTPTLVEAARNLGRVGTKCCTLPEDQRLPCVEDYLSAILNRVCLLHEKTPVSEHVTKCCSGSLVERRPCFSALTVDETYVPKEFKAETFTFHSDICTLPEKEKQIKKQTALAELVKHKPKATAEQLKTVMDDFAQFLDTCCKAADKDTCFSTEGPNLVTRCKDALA

[4] = target: 10GE

Binder | Kd [1] [nM] | Kd [2] [nM] | Kd [3] [nM] | Kd [4] [nM]
7A (protein) EVQLVESGGGLVQPGNSLRLSCAASGFTFSKFGMSWVRQAPGKGLEWVSSISGSGADTLYADSLKGRFTISRDNAKTTLYLQMNSLRPEDTAVYYCTIGGSLSKSSQGTLVTVSS | 1.7 | 1.9 | 12.3 | 
B1 |  |  |  | 1.6
